Data reported in patent publication US20090258344.

B1: bacterially expressed Histidine tag fusion of Dbs DH-PH domain protein (protein)
chain: LRRHVMSELLDTERAYVEELLCVLEGYAAEMDNPLMAHLLSTGLHNKKDVLFGNMEEIYHFHNRIFLRELENYTDCPELVGRCFLERMEDFQIYEKYCQNKPRSESLWRQCSDCPFFQECQRKLDHKLSLDSYLLKPVQRITKYQLLLKEMLKYSRNCEGAEDLQEALSSILGILKAVNDSMHLIAITGYDGNLGDLGKLLMQGSFSVWTDHKRGHTKVKELARFKPMQRHLFLHEKAVLFCKKREENGEGYEKAPSYSYKQSLNMAAVGITENVKGDAKKFEIWYNAREEVYIVQAPTPEIKAAWVNEIRKVLT
B2: bacterially expressed Histidine tag fusion of KIAA0861 DH-PH domain protein (protein)
chain: PRRRIIRDLLETEEIYIKEIKSIIDGYITPMDFIWLKHLIPDVLQNNKDFLFGNIRELYEFHNRTFLKELEKCAENPELLAHCFLKRKEDLQIYFKYHKNLPRARAIWQECQDCAYFGVCQRQLDHNLPLFKYLKGPSQRLIKYQMLLKGLLDFESPEDMEIDPGELGGSAKDGPKRTKDSAFSTELQQALAVIEDLIKSCELAVDLAAVTECPDDIGKLGKLLLHGPFSVWTIHKDRYKMKDLIRFKPSQRQIYLFERGIVFCKIRMEPGDQGLSPHYSFKKTMKLMTLSIRQLGRGSHRKFEIASRNGLEKYILQAASKEIRDCWFSEISKLLM

Experiments:
[1] = target: GST-tag fusion of the GTPase Cdc42
[2] = target: GST-tag fusion of the GTPase RhoA

Protein | N-methylanthraniloyl(mant)-GTP incorporation into Rho GTPase, relative fluorescence (guanine nucleotide exchange assay) [1] | N-methylanthraniloyl(mant)-GTP incorporation into Rho GTPase, relative fluorescence (guanine nucleotide exchange assay) [2]
B1 | KIAA0861 and DBS DH-PH domain proteins are active in exchanging guanine nucleotide from the GST-tag fusions of the GTPases, RhoA and Cdc42 | KIAA0861 and DBS DH-PH domain proteins are active in exchanging guanine nucleotide from the GST-tag fusions of the GTPases, RhoA and Cdc42
B2 | KIAA0861 and DBS DH-PH domain proteins are active in exchanging guanine nucleotide from the GST-tag fusions of the GTPases, RhoA and Cdc42 | KIAA0861 and DBS DH-PH domain proteins are active in exchanging guanine nucleotide from the GST-tag fusions of the GTPases, RhoA and Cdc42
